Reference: patent US6344189B1, “Use of protease inhibitors for treating skin wounds” (Biotech Australia Pty., Ltd., priority 1998, dated 2002)
Entries after “also recorded” stand apart in the source; their conditions may differ. Where two headings read alike, the source gives them in different places. Values belong to the molecule of their own block, whether it stands above or below them. Where a SMILES comes first, the peptide text is derived from it. [ ]: non-standard residue; d: D form. The star is where a group is joined. Sta = CC(C)C[C@H](N)[C@@H](O)CC(=O)O; Isovaleryl = CC(C)CC(=O)*

What was measured:
[1] = tested on: protease activity in wound fluid; assay: Inhibition of protease activity in wound fluid in vitro, substrate ZGGRAMC, fluorescence at 460 nm; type: biochemical, patients
Procedure: Wound fluid was collected from patients with chronic venous leg ulcers, and incubated in vitro in the presence or absence of each inhibitor along with the protease substrate ZGGRAMC. Cleavage of this substrate indicated protease activity, which was detected by fluorescence at 460 nm. Lack of fluorescence indicated inhibition of protease activity.
Conditions were as described above for single inhibitors.

[2] = PAI-2 release from gel in two compartment vessel with microporous membrane; type: physicochemical; settings: cellulose gel, presence of Tween80, FIG. 4
Text: In these experiments, the PAI-2 containing gel was placed in the top chamber of a two compartment vessel. The bottom chamber contained buffer, and the two chambers were separated by a microporous membrane. The appearance of PAI-2 in the lower chamber indicated PAI-2 release from the gel, and was monitored by assays for PAI-2 activity.

[3] = Stability of PAI-2 in wound fluid; type: in vitro ADME; settings: 3-hour period, FIG. 1
Procedure: (§1) It also is apparent that the inhibitors must be stable in the wound fluid to be effective in aiding wound healing. In the context of the present invention, an inhibitor is suitably stable when it retains at least 50% of its activity after exposure to wound fluid for 3 hours. In this regard, therefore, it is particularly desirable to use an inhibitor that inhibits uPA and is stable in wound fluid.

[4] = Adverse events and histological examination of ulcer edge biopsies; type: in vivo, patients
Procedure: (§2) Test solution was applied in this manner for five consecutive days. This was followed by visits on days 15, 22, and 29. Ulcer area determination was made on days 1, 5, 15, 22, and 29, ulcer volume was measured by structured light assessment on days 1, 5, and 29, and the ulcer was photographed on days 1, 5, and 29. Adverse events were assessed at each visit, as were concomitant medications.
(§3) In addition, wound fluid was collected on the first day before addition of test solution, and 2 hr, 4 hr, and 6 hr afterwards. Wound fluid collection was also made on days 2, 3, 4, and 5 (before test solution addition) and day 29. Blood samples were taken on day 1 at 0 (before), 0.5 hr, 1 hr, and 2 hr after the test solution, and also at day 5. A punch biopsy was taken for histochemical examination of the ulcer edge on day 5.
Histological examination was performed on biopsies taken at visit 5 after staining with hematoxylin and eosin. […] This effect is likely to be beneficial to the ulcer.

[5] = target: T1, uPA (Homo sapiens, UniProt P00749); assay: Addition of PAI-2 to wound fluid, uPA activity; type: biochemical; settings: PAI-2 added to wound fluid
T1 construct: from tissue; host or cells: wound fluid
Procedure: as §1

[6] = tested on: uPA; assay: uPA activity in patients' wound fluid by Chromolise assay; type: in vivo
Procedure: as §3
(§4) All wound fluid samples were analyzed for uPA activity by the Chromolise assay, and for total protein by the Bradford assay. If sufficient wound fluid was available, the following assays were also performed, in order of priority: (i) PAI-2 antigen level, by ELISA; (ii) a Western blot to detect whether the PAI-2 molecule was intact, complexed, or in fragments; (iii) total protease activity, determined by a chromogenic assay using azo-casein as substrate, and (iv) total protease activity in the presence of EDTA (to block metalloproteases) or aprotinin (to block plasmin). In addition, blood samples were analyzed by PAI-2 ELISA (0, 0.5, 1, 2 hr on day 1) and analyzed for FBC and clinical chemistry on day 1(0) and day 5.
(§5) The ELISA used for PAI-2 detected both glycosylated and non-glycosylated PAI-2, and both complexed (with uPA or tPA) and uncomplexed PAI-2. Insufficient wound fluid was obtained for total protease assays in the presence of aprotinin or EDTA. The variation in ulcer volume measurements by structured light assessment was very large:—20.4% on repeated measurements, so those data could not be used to judge small changes in ulcer volume.

[7] = tested on: chronic venous leg ulcers; assay: Double blind placebo controlled randomized trial of topical PAI-2, ulcer area by tracing; type: in vivo, patients; settings: PAI-2 20 μg per cm^2 topical, five consecutive days; 29-day course; compared with placebo
Text: The study was a double blind placebo controlled randomized trial. A stratified randomization was utilized according to ulcer size. Patients with ulcers less than, and greater than, 20 cm^2 were randomized separately. No minimum or maximum times were set for the patients' current ulcer episode. Minimum and maximum ulcer areas were 2 cm^2 and 50 cm^2, and a patient's resting ankle brachial doppler arterial pressure index for inclusion was equal to or greater than 0.80.
All patients received compression bandaging. The area of the ulcer was determined by tracing, and the test solution, either PAI-2 at 1.0 mg/ml in phosphate buffered saline, pH 7.0, or buffer alone, was applied at 20 μl (20 ,μg in the case of PAI-2) per cm^2. The patient was asked to lie recumbent on the examination couch while the test solution was applied to the surface of the wound, and to remain there for 15 minutes before bandaging was applied.
as §2

[8] = PAI-2 antigen level by ELISA and Western blot in wound fluid and blood samples; type: in vivo, patients; settings: for level of PAI-2 in wound fluid: first visit
Procedure: as §3, §4, §5

[9] = tested on: total protease activity in wound fluid; assay: Total protease activity in wound fluid, chromogenic assay with azo-casein substrate; type: in vivo, patients; settings: ng/ml of wound fluid or ng/mg protein
Procedure: as §4

[10] = single inhibitors, wound fluid of chronic venous leg ulcers

Molecule: N=C(N)NC(=O)c1nc(Cl)c(N)nc1N [Amiloride]
Percent Inhibition [1, 10]: 96%

Molecule: O=C(O)CN(CCN(CC(=O)O)CC(=O)O)CC(=O)O [EDTA, ethylene diamine tetraacetic acid]
Percent Inhibition [1, 10]: 0%

Molecule: CCN1C(=O)C=CC1=O [NEM, N-ethyl maleimide]
Percent Inhibition [1, 10]: 21%

Molecule: CC(C)CC(=O)N[C@H](C(=O)N[C@H](C(=O)N[C@@H](CC(C)C)[C@@H](O)CC(=O)N[C@@H](C)C(=O)N[C@@H](CC(C)C)[C@@H](O)CC(=O)O)C(C)C)C(C)C [Pepstatin] (Isovaleryl-VV[Sta]A[Sta]-OH)
Percent Inhibition [1, 10]: 0%

Molecule: glutamic acid-glycine-arginine chloromethyl ketone [EGRCK]
Percent Inhibition [1]: 94%

uPA activity in wound fluid [5]: caused the inhibition of uPA activity
B1: plasminogen activator inhibitor 2 (protein, UniProt P05120 1-415, looked up)
Plasminogen activator …: MEDLCVANTLFALNLFKHLAKASPTQNLFLSPWSISSTMAMVYMGSRGSTEDQMAKVLQFNEVGANAVTPMTPENFTSCGFMQQIQKGSYPDAILQAQAADKIHSSFRSLSSAINASTGNYLLESVNKLFGEKSASFREEYIRLCQKYYSSEPQAVDFLECAEEARKKINSWVKTQTKGKIPNLLPEGSVDGDTRMVLVNAVYFKGKWKTPFEKKLNGLYPFRVNSAQRTPVQMMYLREKLNIGYIEDLKAQILELPYAGDVSMFLLLPDEIADVSTGLELLESEITYDKLNKWTSKDKMAEDEVEVYIPQFKLEEHYELRSILRSMGMEDAFNKGRANFSGMSERNDLFLSEVFHQAMVDVNEEGTEAAAGTGGVMTGRTGHGGPQFVADHPFLFLIMHKITNCILFFGRFSSP
release of PAI-2 from gel [2]: enhanced release
stability in wound fluid [3]: relatively stable in wound fluid
damage to the tissue, histological examination ([4]; biopsies at visit 5, hematoxylin and eosin): No evidence of damage to the tissue
systemic toxicity ([4]; in vivo): does not appear to have systemic toxicity
adverse events ([4]; topical PAI-2, chronic leg ulcers, course of the study): none of the adverse events was deemed related to the PAI-2 treatment
specific activity of uPA (ng/mg of total protein in wound fluid) ([6]; first day of PAI-2 administration, relative to placebo group): declined over 6 hrs
difference in uPA between the two groups expressed as units/ml of wound fluid ([6]; per ml of wound fluid rather than per mg total protein): not apparent
uPA activity in wound fluid ([6]; subsequent days over the course of the study, PAI-2 vs placebo): no significant difference
ulcer area [7]: significant decrease in the area of leg ulcers compared to controls; also recorded: a reduction in the ulcer area
intact PAI-2 in wound fluid, Western blot ([8]; 2 hr): significant amounts of intact PAI-2
level of PAI-2 in wound fluid ([8]; 2 hr after topical application): increased dramatically
level of PAI-2 in wound fluid ([8]; 4 hr after topical application): declined almost to baseline
systemic distribution of topically applied PAI-2 ([8]; blood samples, PAI-2 ELISA): No evidence of systemic distribution
total protease activity [9]: did not appear to be altered
